Measurements published in the supplement of paper PMC11811203.

B1: THAP1; numbered along this chain (parent)
chain: MVQSCSAYGCKNRYDKDKPVSFHKFPLTRPSLCKEWEAAVRRKNFKPTKYSSICSEHFTPDCFKRECNNKLLKENAVPTIFLCTEPHDKKEDLLEPQEQLPPPPLPPPVSQVDAAIGLLMPPLQTPVNLSVFCDHNYTVEDTMHQRKRIHQLEQQVEKLRKKLKTAQQRCRRQERQLEKLKEVVHFQKEKDDVSERGYVILPNDYFEIVEVPA

Variants of: B1
Test: THAP1 transcriptional activity (GFP+/GFP- enrichment relative to wild-type constructs) (ratio to WT); higher = more THAP1 activity (PSMB5 reporter activation)
Conditions: with PSMB5 promoter-GFP reporter
In short: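 A lentiviral site-saturation library covering residues 2–213 of human THAP1, with each position changed to all 20 amino acids, was transduced in duplicate at MOI ~0.3 into THAP1-knockout HEK-293T cells with mClover3 knocked in at endogenous PSMB5. Five days later, BFP+ cells were sorted into GFP-dim and GFP-bright bins and variants were counted by Illumina sequencing of genomic DNA amplicons. Activity is the bright/dim read fold change averaged over replicates and divided by the mean of wild-type synonymous constructs.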

Compared with MVQSCSAYGCKNRYDKDKPVSFHKFPLTRPSLCKEWEAAVRRKNFKPTKYSSICSEHFTPDCFKRECNNKLLKENAVPTIFLCTEPHDKKEDLLEPQEQLPPPPLPPPVSQVDAAIGLLMPPLQTPVNLSVFCDHNYTVEDIMHQRKRIHQLEQQVEKLRKKLKTAQQRCRRQERQLEKLKEVVHFQKEKDDVSERGYVILPNDYFEIVEVPA [T142I], MVQSCSAYGCKNRYDKDKPVSFHKFPLTRPSLCKEWEAAVRRKNFKPTKYSSICSEHFTPDCFKRECNNKLLKENAVPTIFLCTEPHDKKEDLLEPQEQLPPPPLPPPVSQVDAAIGLLMPPLQTPVNLSVFCDHNYTVEDKMHQRKRIHQLEQQVEKLRKKLKTAQQRCRRQERQLEKLKEVVHFQKEKDDVSERGYVILPNDYFEIVEVPA [T142K] is higher in THAP1 transcriptional activity: 0.34 for the first, 0.964 for the second.

First: MVQSCSAYGCKNRYDKDKPVSFHKFPLTRPSLCKEWEAAVRRKNFKPTKYSSICSEHFTPDCFKRECNNKLLKENAVPTIFLCTEPHDKKEDLLEPQEQLPPPPLPPPVSQVDAAIGLLMPPLQTPVNLSVFCDHNYTVEDLMHQRKRIHQLEQQVEKLRKKLKTAQQRCRRQERQLEKLKEVVHFQKEKDDVSERGYVILPNDYFEIVEVPA [T142L]
Second: MVQSCSAYGCKNRYDKDKPVSFHKFPLTRPSLCKEWEAAVRRKNFKPTKYSSICSEHFTPDCFKRECNNKLLKENAVPTIFLCTEPHDKKEDLLEPQEQLPPPPLPPPVSQVDAAIGLLMPPLQTPVNLSVFCDHNYTVEDMMHQRKRIHQLEQQVEKLRKKLKTAQQRCRRQERQLEKLKEVVHFQKEKDDVSERGYVILPNDYFEIVEVPA [T142M]
The THAP1 transcriptional activity of the first is higher: 0.587 for the first, 0.188 for the second.

Going from MVQSCSAYGCKNRYDKDKPVSFHKFPLTRPSLCKEWEAAVRRKNFKPTKYSSICSEHFTPDCFKRECNNKLLKENAVPTIFLCTEPHDKKEDLLEPQEQLPPPPLPPPVSQVDAAIGLLMPPLQTPVNLSVFCDHNYTVEDNMHQRKRIHQLEQQVEKLRKKLKTAQQRCRRQERQLEKLKEVVHFQKEKDDVSERGYVILPNDYFEIVEVPA [T142N] to MVQSCSAYGCKNRYDKDKPVSFHKFPLTRPSLCKEWEAAVRRKNFKPTKYSSICSEHFTPDCFKRECNNKLLKENAVPTIFLCTEPHDKKEDLLEPQEQLPPPPLPPPVSQVDAAIGLLMPPLQTPVNLSVFCDHNYTVEDPMHQRKRIHQLEQQVEKLRKKLKTAQQRCRRQERQLEKLKEVVHFQKEKDDVSERGYVILPNDYFEIVEVPA [T142P], the THAP1 transcriptional activity rises from 0.392 to 0.997.

Going from MVQSCSAYGCKNRYDKDKPVSFHKFPLTRPSLCKEWEAAVRRKNFKPTKYSSICSEHFTPDCFKRECNNKLLKENAVPTIFLCTEPHDKKEDLLEPQEQLPPPPLPPPVSQVDAAIGLLMPPLQTPVNLSVFCDHNYTVEDQMHQRKRIHQLEQQVEKLRKKLKTAQQRCRRQERQLEKLKEVVHFQKEKDDVSERGYVILPNDYFEIVEVPA [T142Q] to MVQSCSAYGCKNRYDKDKPVSFHKFPLTRPSLCKEWEAAVRRKNFKPTKYSSICSEHFTPDCFKRECNNKLLKENAVPTIFLCTEPHDKKEDLLEPQEQLPPPPLPPPVSQVDAAIGLLMPPLQTPVNLSVFCDHNYTVEDRMHQRKRIHQLEQQVEKLRKKLKTAQQRCRRQERQLEKLKEVVHFQKEKDDVSERGYVILPNDYFEIVEVPA [T142R], the THAP1 transcriptional activity falls from 0.756 to 0.576.

Compared with MVQSCSAYGCKNRYDKDKPVSFHKFPLTRPSLCKEWEAAVRRKNFKPTKYSSICSEHFTPDCFKRECNNKLLKENAVPTIFLCTEPHDKKEDLLEPQEQLPPPPLPPPVSQVDAAIGLLMPPLQTPVNLSVFCDHNYTVEDSMHQRKRIHQLEQQVEKLRKKLKTAQQRCRRQERQLEKLKEVVHFQKEKDDVSERGYVILPNDYFEIVEVPA [T142S], MVQSCSAYGCKNRYDKDKPVSFHKFPLTRPSLCKEWEAAVRRKNFKPTKYSSICSEHFTPDCFKRECNNKLLKENAVPTIFLCTEPHDKKEDLLEPQEQLPPPPLPPPVSQVDAAIGLLMPPLQTPVNLSVFCDHNYTVEDVMHQRKRIHQLEQQVEKLRKKLKTAQQRCRRQERQLEKLKEVVHFQKEKDDVSERGYVILPNDYFEIVEVPA [T142V] is lower in THAP1 transcriptional activity: 0.66 for the first, 0.403 for the second.

Going from MVQSCSAYGCKNRYDKDKPVSFHKFPLTRPSLCKEWEAAVRRKNFKPTKYSSICSEHFTPDCFKRECNNKLLKENAVPTIFLCTEPHDKKEDLLEPQEQLPPPPLPPPVSQVDAAIGLLMPPLQTPVNLSVFCDHNYTVEDWMHQRKRIHQLEQQVEKLRKKLKTAQQRCRRQERQLEKLKEVVHFQKEKDDVSERGYVILPNDYFEIVEVPA [T142W] to MVQSCSAYGCKNRYDKDKPVSFHKFPLTRPSLCKEWEAAVRRKNFKPTKYSSICSEHFTPDCFKRECNNKLLKENAVPTIFLCTEPHDKKEDLLEPQEQLPPPPLPPPVSQVDAAIGLLMPPLQTPVNLSVFCDHNYTVEDYMHQRKRIHQLEQQVEKLRKKLKTAQQRCRRQERQLEKLKEVVHFQKEKDDVSERGYVILPNDYFEIVEVPA [T142Y], the THAP1 transcriptional activity falls from 0.266 to 0.248.

Compared with MVQSCSAYGCKNRYDKDKPVSFHKFPLTRPSLCKEWEAAVRRKNFKPTKYSSICSEHFTPDCFKRECNNKLLKENAVPTIFLCTEPHDKKEDLLEPQEQLPPPPLPPPVSQVDAAIGLLMPPLQTPVNLSVFCDHNYTVEDTAHQRKRIHQLEQQVEKLRKKLKTAQQRCRRQERQLEKLKEVVHFQKEKDDVSERGYVILPNDYFEIVEVPA [M143A], MVQSCSAYGCKNRYDKDKPVSFHKFPLTRPSLCKEWEAAVRRKNFKPTKYSSICSEHFTPDCFKRECNNKLLKENAVPTIFLCTEPHDKKEDLLEPQEQLPPPPLPPPVSQVDAAIGLLMPPLQTPVNLSVFCDHNYTVEDTCHQRKRIHQLEQQVEKLRKKLKTAQQRCRRQERQLEKLKEVVHFQKEKDDVSERGYVILPNDYFEIVEVPA [M143C] is higher in THAP1 transcriptional activity: 0.634 for the first, 1.09 for the second.

First: MVQSCSAYGCKNRYDKDKPVSFHKFPLTRPSLCKEWEAAVRRKNFKPTKYSSICSEHFTPDCFKRECNNKLLKENAVPTIFLCTEPHDKKEDLLEPQEQLPPPPLPPPVSQVDAAIGLLMPPLQTPVNLSVFCDHNYTVEDTDHQRKRIHQLEQQVEKLRKKLKTAQQRCRRQERQLEKLKEVVHFQKEKDDVSERGYVILPNDYFEIVEVPA [M143D]
Second: MVQSCSAYGCKNRYDKDKPVSFHKFPLTRPSLCKEWEAAVRRKNFKPTKYSSICSEHFTPDCFKRECNNKLLKENAVPTIFLCTEPHDKKEDLLEPQEQLPPPPLPPPVSQVDAAIGLLMPPLQTPVNLSVFCDHNYTVEDTEHQRKRIHQLEQQVEKLRKKLKTAQQRCRRQERQLEKLKEVVHFQKEKDDVSERGYVILPNDYFEIVEVPA [M143E]
The THAP1 transcriptional activity of the first is higher: 1.76 for the first, 0.983 for the second.

Compared with MVQSCSAYGCKNRYDKDKPVSFHKFPLTRPSLCKEWEAAVRRKNFKPTKYSSICSEHFTPDCFKRECNNKLLKENAVPTIFLCTEPHDKKEDLLEPQEQLPPPPLPPPVSQVDAAIGLLMPPLQTPVNLSVFCDHNYTVEDTFHQRKRIHQLEQQVEKLRKKLKTAQQRCRRQERQLEKLKEVVHFQKEKDDVSERGYVILPNDYFEIVEVPA [M143F], MVQSCSAYGCKNRYDKDKPVSFHKFPLTRPSLCKEWEAAVRRKNFKPTKYSSICSEHFTPDCFKRECNNKLLKENAVPTIFLCTEPHDKKEDLLEPQEQLPPPPLPPPVSQVDAAIGLLMPPLQTPVNLSVFCDHNYTVEDTGHQRKRIHQLEQQVEKLRKKLKTAQQRCRRQERQLEKLKEVVHFQKEKDDVSERGYVILPNDYFEIVEVPA [M143G] is higher in THAP1 transcriptional activity: 0.339 for the first, 1.05 for the second.

Going from MVQSCSAYGCKNRYDKDKPVSFHKFPLTRPSLCKEWEAAVRRKNFKPTKYSSICSEHFTPDCFKRECNNKLLKENAVPTIFLCTEPHDKKEDLLEPQEQLPPPPLPPPVSQVDAAIGLLMPPLQTPVNLSVFCDHNYTVEDTHHQRKRIHQLEQQVEKLRKKLKTAQQRCRRQERQLEKLKEVVHFQKEKDDVSERGYVILPNDYFEIVEVPA [M143H] to MVQSCSAYGCKNRYDKDKPVSFHKFPLTRPSLCKEWEAAVRRKNFKPTKYSSICSEHFTPDCFKRECNNKLLKENAVPTIFLCTEPHDKKEDLLEPQEQLPPPPLPPPVSQVDAAIGLLMPPLQTPVNLSVFCDHNYTVEDTIHQRKRIHQLEQQVEKLRKKLKTAQQRCRRQERQLEKLKEVVHFQKEKDDVSERGYVILPNDYFEIVEVPA [M143I], the THAP1 transcriptional activity rises from 0.575 to 0.679.

First: MVQSCSAYGCKNRYDKDKPVSFHKFPLTRPSLCKEWEAAVRRKNFKPTKYSSICSEHFTPDCFKRECNNKLLKENAVPTIFLCTEPHDKKEDLLEPQEQLPPPPLPPPVSQVDAAIGLLMPPLQTPVNLSVFCDHNYTVEDTKHQRKRIHQLEQQVEKLRKKLKTAQQRCRRQERQLEKLKEVVHFQKEKDDVSERGYVILPNDYFEIVEVPA [M143K]
Second: MVQSCSAYGCKNRYDKDKPVSFHKFPLTRPSLCKEWEAAVRRKNFKPTKYSSICSEHFTPDCFKRECNNKLLKENAVPTIFLCTEPHDKKEDLLEPQEQLPPPPLPPPVSQVDAAIGLLMPPLQTPVNLSVFCDHNYTVEDTLHQRKRIHQLEQQVEKLRKKLKTAQQRCRRQERQLEKLKEVVHFQKEKDDVSERGYVILPNDYFEIVEVPA [M143L]
The THAP1 transcriptional activity of the first is higher: 0.848 for the first, 0.725 for the second.

Compared with MVQSCSAYGCKNRYDKDKPVSFHKFPLTRPSLCKEWEAAVRRKNFKPTKYSSICSEHFTPDCFKRECNNKLLKENAVPTIFLCTEPHDKKEDLLEPQEQLPPPPLPPPVSQVDAAIGLLMPPLQTPVNLSVFCDHNYTVEDTNHQRKRIHQLEQQVEKLRKKLKTAQQRCRRQERQLEKLKEVVHFQKEKDDVSERGYVILPNDYFEIVEVPA [M143N], MVQSCSAYGCKNRYDKDKPVSFHKFPLTRPSLCKEWEAAVRRKNFKPTKYSSICSEHFTPDCFKRECNNKLLKENAVPTIFLCTEPHDKKEDLLEPQEQLPPPPLPPPVSQVDAAIGLLMPPLQTPVNLSVFCDHNYTVEDTPHQRKRIHQLEQQVEKLRKKLKTAQQRCRRQERQLEKLKEVVHFQKEKDDVSERGYVILPNDYFEIVEVPA [M143P] is higher in THAP1 transcriptional activity: 0.961 for the first, 1.2 for the second.

Compared with MVQSCSAYGCKNRYDKDKPVSFHKFPLTRPSLCKEWEAAVRRKNFKPTKYSSICSEHFTPDCFKRECNNKLLKENAVPTIFLCTEPHDKKEDLLEPQEQLPPPPLPPPVSQVDAAIGLLMPPLQTPVNLSVFCDHNYTVEDTQHQRKRIHQLEQQVEKLRKKLKTAQQRCRRQERQLEKLKEVVHFQKEKDDVSERGYVILPNDYFEIVEVPA [M143Q], MVQSCSAYGCKNRYDKDKPVSFHKFPLTRPSLCKEWEAAVRRKNFKPTKYSSICSEHFTPDCFKRECNNKLLKENAVPTIFLCTEPHDKKEDLLEPQEQLPPPPLPPPVSQVDAAIGLLMPPLQTPVNLSVFCDHNYTVEDTRHQRKRIHQLEQQVEKLRKKLKTAQQRCRRQERQLEKLKEVVHFQKEKDDVSERGYVILPNDYFEIVEVPA [M143R] is higher in THAP1 transcriptional activity: 0.669 for the first, 0.991 for the second.

First: MVQSCSAYGCKNRYDKDKPVSFHKFPLTRPSLCKEWEAAVRRKNFKPTKYSSICSEHFTPDCFKRECNNKLLKENAVPTIFLCTEPHDKKEDLLEPQEQLPPPPLPPPVSQVDAAIGLLMPPLQTPVNLSVFCDHNYTVEDTSHQRKRIHQLEQQVEKLRKKLKTAQQRCRRQERQLEKLKEVVHFQKEKDDVSERGYVILPNDYFEIVEVPA [M143S]
Second: MVQSCSAYGCKNRYDKDKPVSFHKFPLTRPSLCKEWEAAVRRKNFKPTKYSSICSEHFTPDCFKRECNNKLLKENAVPTIFLCTEPHDKKEDLLEPQEQLPPPPLPPPVSQVDAAIGLLMPPLQTPVNLSVFCDHNYTVEDTTHQRKRIHQLEQQVEKLRKKLKTAQQRCRRQERQLEKLKEVVHFQKEKDDVSERGYVILPNDYFEIVEVPA [M143T]
The THAP1 transcriptional activity of the first is lower: 0.971 for the first, 1.19 for the second.
